The target of one assay is T1, SLC39A9 (Homo sapiens, UniProt Q9NUM3).
T1 chain: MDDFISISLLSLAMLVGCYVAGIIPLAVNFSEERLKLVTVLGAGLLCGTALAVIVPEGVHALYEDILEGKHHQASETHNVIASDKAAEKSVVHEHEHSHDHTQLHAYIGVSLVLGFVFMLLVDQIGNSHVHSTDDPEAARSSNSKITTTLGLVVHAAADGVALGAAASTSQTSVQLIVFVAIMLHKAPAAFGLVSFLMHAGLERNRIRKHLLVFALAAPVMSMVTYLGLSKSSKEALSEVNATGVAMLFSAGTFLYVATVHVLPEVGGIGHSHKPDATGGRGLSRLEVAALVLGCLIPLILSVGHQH
Briefly: SPR.

The target of a further assay is T2, NPC1-10×His-Flag (human, UniProt O15118 23-1278).
T2 construct: also called purified NPC1-Flag; full-length NPC1 protein
T2 sequence (looked up): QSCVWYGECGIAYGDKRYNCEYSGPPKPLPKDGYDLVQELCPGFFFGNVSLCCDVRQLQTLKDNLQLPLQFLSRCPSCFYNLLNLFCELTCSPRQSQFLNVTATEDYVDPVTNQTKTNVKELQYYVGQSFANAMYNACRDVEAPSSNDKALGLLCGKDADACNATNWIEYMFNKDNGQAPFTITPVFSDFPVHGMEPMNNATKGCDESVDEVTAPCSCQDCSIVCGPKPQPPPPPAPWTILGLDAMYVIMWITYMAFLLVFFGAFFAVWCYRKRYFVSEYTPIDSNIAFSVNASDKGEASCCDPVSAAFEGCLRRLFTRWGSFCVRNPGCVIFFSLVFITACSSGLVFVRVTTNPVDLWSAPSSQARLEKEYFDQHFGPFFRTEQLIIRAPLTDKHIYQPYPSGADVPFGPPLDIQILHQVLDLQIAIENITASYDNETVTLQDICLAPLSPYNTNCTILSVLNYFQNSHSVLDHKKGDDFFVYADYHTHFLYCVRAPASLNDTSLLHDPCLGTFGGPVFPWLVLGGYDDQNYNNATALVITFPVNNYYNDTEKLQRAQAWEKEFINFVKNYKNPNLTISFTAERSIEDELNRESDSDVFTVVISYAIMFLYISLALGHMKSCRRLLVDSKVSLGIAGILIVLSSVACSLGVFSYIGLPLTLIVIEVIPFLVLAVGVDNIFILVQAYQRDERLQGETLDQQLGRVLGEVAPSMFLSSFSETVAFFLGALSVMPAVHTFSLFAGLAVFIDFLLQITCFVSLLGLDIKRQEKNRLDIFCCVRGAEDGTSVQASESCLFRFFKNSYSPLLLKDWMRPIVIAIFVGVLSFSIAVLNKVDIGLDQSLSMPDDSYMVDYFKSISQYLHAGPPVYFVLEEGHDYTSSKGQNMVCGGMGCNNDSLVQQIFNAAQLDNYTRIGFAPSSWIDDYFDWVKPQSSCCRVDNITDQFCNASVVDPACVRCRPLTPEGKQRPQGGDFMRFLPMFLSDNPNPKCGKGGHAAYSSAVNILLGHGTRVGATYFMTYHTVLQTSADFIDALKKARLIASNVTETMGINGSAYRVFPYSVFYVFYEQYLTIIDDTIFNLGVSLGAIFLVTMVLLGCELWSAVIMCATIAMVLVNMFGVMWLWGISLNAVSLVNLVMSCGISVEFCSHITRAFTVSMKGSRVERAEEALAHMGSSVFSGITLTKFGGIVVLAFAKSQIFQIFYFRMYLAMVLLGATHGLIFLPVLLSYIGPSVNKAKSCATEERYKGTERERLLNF
The assay is described as follows: SPR. Conditions: both partners purified.

B1: EBOV GP (protein)
chain: IPLGVIHNSTLQVSDVDKLVCRDKLSSTNQLRSVGLNLEGNGVATDVPSATKRWGFRSGVPPKVVNYEAGEWAENCYNLEIKKPDGSECLPAAPDGIRGFPRCRYVHKVSGTGPCAGDFAFHKEGAFFLYDRLASTVIYRGTTFAEGVVAFLILPQAKKDFFSSHPLREPVNATEDPSSGYYSTTIRYQATGFGTNETEYLFEVDNLTYVQLESRFTPQFLLQLNETIYTSGKRSNTTGKLIWKVNPEIDTTIGEWAFWETKKNLTRKIRSEELSFTVVSNGAKNISGQSPARTSSDPGTNTTTEDHKIMASENSSAMVQVHSQGREAAVSHLTTLATISTSPQSLTTKPGPDNSTHNTPVYKLDISEATQVEQHHRRTDNDSTASDTPSATTAAGPPKAENTNTSKSTDFLDPATTTSPQNHSETAGNNNTHHQDTGEESASSGKLGLITNTIAGVAGLITGGRRTRREAIVNAQPKCNPNLHYWTTQDEGAAIGLAWIPYFGPAAEGIYIEGLMHNQDGLICGLRQLANETTQALQLFLRATTELRTFSILNRKAIDFLLQRWGGTCHILGPDCCIEPHDWTKNITDKIDQIIHDFVDKTLPDQGDNDNWWTGWRQWIPAGIGVTGVIIAVIALFCICKFVF
B1: the affinity with SLC39A9, expressed as Kd, was 3 µM.

B2: primed EBOV GP (GPcl) (domain or fragment)
chain 1: IPLGVIHNSTLQVSDVDKLVCRDKLSSTNQLRSVGLNLEGNGVATDVPSATKRWGFRSGVPPKVVNYEAGEWAENCYNLEIKKPDGSECLPAAPDGIRGFPRCRYVHKVSGTGPCAGDFAFHKEGAFFLYDRLASTVIYRGTTFAEGVVAFLILPQ
chain 2: EAIVNAQPKCNPNLHYWTTQDEGAAIGLAWIPYFGPAAEGIYIEGLMHNQDGLICGLRQLANETTQALQLFLRATTELRTFSILNRKAIDFLLQRWGGTCHILGPDCCIEPHDWTKNITDKIDQIIHDFVDKTLPDQGDNDNWWTGWRQ
Regarding B2, in the assay with NPC1-10×His-Flag, the Kd (as a rule, the constant that tells how readily two partners part at equilibrium) was determined as 18.5 µM.
